In patent US20060189522A1 (IMPERIAL INNOVATIONS, published 2006):

How the values were obtained:
[1] = molecular target: T1, GLP-1 receptor in rat hypothalamic membrane preparations (rat, UniProt P32301 22-463); assay: competition with [125I]GLP-1 on rat hypothalamic membranes, radioligand displacement
T1 construct: whole, on cells; Native receptor in a rat hypothalamic membrane preparation, not intact cells and not a recombinant construct; also called GLP-receptor; GLP-IR
T1 sequence (looked up): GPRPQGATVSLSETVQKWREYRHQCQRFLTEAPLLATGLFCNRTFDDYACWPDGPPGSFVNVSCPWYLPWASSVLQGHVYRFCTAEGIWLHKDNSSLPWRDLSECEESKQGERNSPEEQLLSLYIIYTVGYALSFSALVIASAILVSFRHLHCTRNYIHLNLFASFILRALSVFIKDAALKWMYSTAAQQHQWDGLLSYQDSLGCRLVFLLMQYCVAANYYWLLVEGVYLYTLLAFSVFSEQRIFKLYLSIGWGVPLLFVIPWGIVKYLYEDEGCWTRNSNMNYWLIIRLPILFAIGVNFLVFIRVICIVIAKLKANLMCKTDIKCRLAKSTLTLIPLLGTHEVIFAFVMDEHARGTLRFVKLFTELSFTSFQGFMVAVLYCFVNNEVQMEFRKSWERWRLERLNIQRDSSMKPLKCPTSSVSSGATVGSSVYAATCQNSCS
Experimental: (§1) Membranes were incubated at room temperature for 90 min. Bound and free radioactivity were separated by centrifugation (2 min, 4° C.). Pelleted membranes were washed with assay buffer (0.5 ml, ice-cold), and the membranes were centrifuged as described above. The supernatant was removed, and the radioactivity in the pellet was counted using a γ-counter. […] All curves were constructed with points in triplicate. IC₅₀ values were calculated using the Prism 3 program (GraphPad Software, Inc., San Diego, Calif.).

[2] = molecular target: T1, GLP-1 receptor in rat hypothalamic …; assay: competition with [125I]GLP-1 (100 pM) on rat hypothalamic membranes, radioligand displacement
Experimental: as §1

How did the “affinity relative to GLP-1” value [1] turn out when HSQGTFTSDYSKYLDSRRAQDFVQWLMNTKRNKNNIA (Bought from IAF BioChem Pharma) [human oxyntomodulin (OXM)] was run?
The value was ~2 orders of magnitude weaker than GLP-1.

What about the IC50 [2] of the same binder?
The IC50 was 8.2 nM.
